In paper PMC8458290 (Nature Communications, 2021):

B1: nanobody F2 (monovalent VHH, pOPINO construct) (VHH)
VHH: QVQLVESGGGLVQAGGSLRLACIASGRTFHSYVMAWFRQAPGKEREFVAAISWSSTPTYYGESVKGRFTISRDNAKNTVYLQMNRLKPEDTAVYFCAADRGESYYYTRPTEYEFWGQGTQVTVSS
B2: nanobody C1 (monovalent VHH, pOPINO construct) (VHH)
VHH: QVQLVESGGGLVQPGGSLRLSCAASGFTNDFYSIAWFRQAPGKEREGVSWLSVSDNTPTYVDSVKDRFTISRHNANNTVYLQMNMLKPEDTAIYYCAAGRFAGRDTWPSSYDYWGQGTQVTVSS

Experiments:
[1] = molecular target: T1, Alpha (B.1.1.7) RBD, biotinylated (SARS-CoV-2, Alpha (B.1.1.7), N501Y, biotinylated (site not stated)); test: SPR; details: both partners purified
T1 construct: also called Alpha RBD; RBD-Kent

[2] = molecular target: T2, Beta (B.1.351) RBD, biotinylated (SARS-CoV-2, Beta (B.1.351), N501Y | E484K | K417N, biotinylated (site not stated)); test: SPR; details: both partners purified
T2 construct: also called Beta RBD; Beta-RBD

Binder	Kd [1] [pM]	T1/2 [1] [min]	Kd [2] [pM]	T1/2 [2] [min]
B1	47	51	38	52
B2	725	21	648	–
